Laboratory results from patent US20080020978A1 (Amgen, published 2008).
Bridge positions count the residues as written; N and C are the ends. Square brackets hold non-standard residues; d marks the D form. 1Nal = N[C@@H](Cc1cccc2ccccc12)C(=O)O; hArg = N=C(N)NCCCC[C@H](N)C(=O)O; Cit = NC(=O)NCCC[C@H](N)C(=O)O; Aze = O=C(O)[C@@H]1CCN1; Aib = CC(C)(N)C(=O)O

biological target: CGRP1 receptor (CRLR/RAMP1 complex) of human neuroblastoma SK-N-MC cells (human, UniProt Q16602 23-461; O60894 27-148); assay: cell-based or functional assay
Sequence (Q16602 23-461, chain 1 of 2): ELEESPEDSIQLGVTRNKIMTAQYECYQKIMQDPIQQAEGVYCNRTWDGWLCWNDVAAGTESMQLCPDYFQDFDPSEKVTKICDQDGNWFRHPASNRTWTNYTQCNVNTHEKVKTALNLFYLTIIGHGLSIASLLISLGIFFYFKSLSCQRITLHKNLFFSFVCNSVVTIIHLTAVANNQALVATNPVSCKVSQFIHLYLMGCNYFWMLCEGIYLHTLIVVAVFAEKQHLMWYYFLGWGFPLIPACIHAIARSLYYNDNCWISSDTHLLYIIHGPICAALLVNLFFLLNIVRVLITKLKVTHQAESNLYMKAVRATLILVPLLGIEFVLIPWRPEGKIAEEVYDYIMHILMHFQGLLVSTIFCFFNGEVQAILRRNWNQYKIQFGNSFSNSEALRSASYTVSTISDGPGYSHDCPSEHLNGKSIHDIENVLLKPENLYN
Sequence (O60894 27-148, chain 2 of 2): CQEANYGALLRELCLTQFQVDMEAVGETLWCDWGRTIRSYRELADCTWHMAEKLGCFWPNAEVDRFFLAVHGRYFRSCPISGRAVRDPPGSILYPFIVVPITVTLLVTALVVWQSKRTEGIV

Binder | Peptide IC50 [nM] | PEG-peptide IC50 [nM]
Ac-WVTHRLEGLLKQSGGVV[hArg]KNFVPTDVGPFAF-NH2 (SMILES CC(=O)N[C@@H](Cc1c[nH]c2ccccc12)C(=O)N[C@H](C(=O)N[C@H](C(=O)N[C@@H](Cc1c[nH]cn1)C(=O)N[C@@H](CCCNC(=N)N)C(=O)N[C@@H](CC(C)C)C(=O)N[C@@H](CCC(=O)O)C(=O)NCC(=O)N[C@@H](CC(C)C)C(=O)N[C@@H](CC(C)C)C(=O)N[C@@H](CCCCN)C(=O)N[C@@H](CCC(N)=O)C(=O)N[C@@H](CO)C(=O)NCC(=O)NCC(=O)N[C@H](C(=O)N[C@H](C(=O)N[C@@H](CCCCNC(=N)N)C(=O)N[C@@H](CCCCN)C(=O)N[C@@H](CC(N)=O)C(=O)N[C@@H](Cc1ccccc1)C(=O)N[C@H](C(=O)N1CCC[C@H]1C(=O)N[C@H](C(=O)N[C@@H](CC(=O)O)C(=O)N[C@H](C(=O)NCC(=O)N1CCC[C@H]1C(=O)N[C@@H](Cc1ccccc1)C(=O)N[C@@H](C)C(=O)N[C@@H](Cc1ccccc1)C(N)=O)C(C)C)[C@@H](C)O)C(C)C)C(C)C)C(C)C)[C@@H](C)O)C(C)C) [SEQ ID NO 903] | 3.5 | –
Ac-WVEHRLKGLLS[Cit]SGGVV[hArg]KNFVPTDVGPFAF-NH2 (lactam 3-7; also: PEG-conjugated, in most cases at Lys25) [PEG-peptide of SEQ ID NO 906] | – | 2.29
Ac-WVEH[hArg]LKGLLS[Cit]SG[Aze]VVRKNFVPTDVGPFAF-NH2 (lactam 3-7) [SEQ ID NO 899] | 1.62 | –
Ac-WVEHRLKGLLS[hArg]SGGVV[hArg]KNFVPTDVGPFAF-NH2 (lactam 3-7; also: PEG-conjugated, in most cases at Lys25) [PEG-peptide of SEQ ID NO 905] | – | 3.7
Ac-WVEHRLKGLLSQSGGVV[hArg]KNFVPTDVGPFAF-NH2 (lactam 3-7) [SEQ ID NO 904] | 2.03 | –
Ac-[Aib]WVEH[hArg]LKGLLS[Cit]SGGVVRKNFVPTDVGPFAF-NH2 (lactam 4-8; also: PEG-conjugated, in most cases at Lys25) [PEG-peptide of SEQ ID NO 898] | – | 40.7
WVEHRLKGELSRKGGVVXKNFVPTDVGPFAF (Ac-WVEHRLKGELSRKGGVV[hArg]KNFVPTDVGPFAF-NH2) [SEQ ID NO 901] | 1.02 | –
WVEHRLKGELSXKGGVVXKNFVPTDVGPFAF (Ac-WVEHRLKGELS[Cit]KGGVV[hArg]KNFVPTDVGPFAF-NH2) [SEQ ID NO 902] | 0.49 | –
Ac-[1Nal]VEH[hArg]LKGLLS[Cit]SGGVVRKNFVPTDVGPFAF-NH2 (lactam 3-7; SMILES CC(=O)N[C@@H](Cc1cccc2ccccc12)C(=O)N[C@H](C(=O)N[C@H]1CCC(=O)NCCCC[C@@H](C(=O)NCC(=O)N[C@@H](CC(C)C)C(=O)N[C@@H](CC(C)C)C(=O)N[C@@H](CO)C(=O)N[C@@H](CCCNC(N)=O)C(=O)N[C@@H](CO)C(=O)NCC(=O)NCC(=O)N[C@H](C(=O)N[C@H](C(=O)N[C@@H](CCCNC(=N)N)C(=O)N[C@@H](CCCCN)C(=O)N[C@@H](CC(N)=O)C(=O)N[C@@H](Cc2ccccc2)C(=O)N[C@H](C(=O)N2CCC[C@H]2C(=O)N[C@H](C(=O)N[C@@H](CC(=O)O)C(=O)N[C@H](C(=O)NCC(=O)N2CCC[C@H]2C(=O)N[C@@H](Cc2ccccc2)C(=O)N[C@@H](C)C(=O)N[C@@H](Cc2ccccc2)C(N)=O)C(C)C)[C@@H](C)O)C(C)C)C(C)C)C(C)C)NC(=O)[C@H](CC(C)C)NC(=O)[C@H](CCCCNC(=N)N)NC(=O)[C@H](Cc2c[nH]cn2)NC1=O)C(C)C) [SEQ ID NO 900] | 2.43 | –
Ac-[Aib]WVEH[hArg]LKGLLS[Cit]SGGVVRKNFVPTDVGPFAF-NH2 (lactam 4-8; SMILES CC(=O)NC(C)(C)C(=O)N[C@@H](Cc1c[nH]c2ccccc12)C(=O)N[C@H](C(=O)N[C@H]1CCC(=O)NCCCC[C@@H](C(=O)NCC(=O)N[C@@H](CC(C)C)C(=O)N[C@@H](CC(C)C)C(=O)N[C@@H](CO)C(=O)N[C@@H](CCCNC(N)=O)C(=O)N[C@@H](CO)C(=O)NCC(=O)NCC(=O)N[C@H](C(=O)N[C@H](C(=O)N[C@@H](CCCNC(=N)N)C(=O)N[C@@H](CCCCN)C(=O)N[C@@H](CC(N)=O)C(=O)N[C@@H](Cc2ccccc2)C(=O)N[C@H](C(=O)N2CCC[C@H]2C(=O)N[C@H](C(=O)N[C@@H](CC(=O)O)C(=O)N[C@H](C(=O)NCC(=O)N2CCC[C@H]2C(=O)N[C@@H](Cc2ccccc2)C(=O)N[C@@H](C)C(=O)N[C@@H](Cc2ccccc2)C(N)=O)C(C)C)[C@@H](C)O)C(C)C)C(C)C)C(C)C)NC(=O)[C@H](CC(C)C)NC(=O)[C@H](CCCCNC(=N)N)NC(=O)[C@H](Cc2c[nH]cn2)NC1=O)C(C)C) [SEQ ID NO 898] | 3.18 | –
Ac-WVEHRLKGLLS[hArg]SGGVV[hArg]KNFVPTDVGPFAF-NH2 (lactam 3-7) [SEQ ID NO 905] | 1.7 | –
Ac-[1Nal]VEH[hArg]LKGLLS[Cit]SG[Aze]VV[hArg]KNFVPTDVGPFAF-NH2 (SMILES CC(=O)N[C@@H](Cc1cccc2ccccc12)C(=O)N[C@H](C(=O)N[C@@H](CCC(=O)O)C(=O)N[C@@H](Cc1c[nH]cn1)C(=O)N[C@@H](CCCCNC(=N)N)C(=O)N[C@@H](CC(C)C)C(=O)N[C@@H](CCCCN)C(=O)NCC(=O)N[C@@H](CC(C)C)C(=O)N[C@@H](CC(C)C)C(=O)N[C@@H](CO)C(=O)N[C@@H](CCCNC(N)=O)C(=O)N[C@@H](CO)C(=O)NCC(=O)N1CC[C@H]1C(=O)N[C@H](C(=O)N[C@H](C(=O)N[C@@H](CCCCNC(=N)N)C(=O)N[C@@H](CCCCN)C(=O)N[C@@H](CC(N)=O)C(=O)N[C@@H](Cc1ccccc1)C(=O)N[C@H](C(=O)N1CCC[C@H]1C(=O)N[C@H](C(=O)N[C@@H](CC(=O)O)C(=O)N[C@H](C(=O)NCC(=O)N1CCC[C@H]1C(=O)N[C@@H](Cc1ccccc1)C(=O)N[C@@H](C)C(=O)N[C@@H](Cc1ccccc1)C(N)=O)C(C)C)[C@@H](C)O)C(C)C)C(C)C)C(C)C)C(C)C) [SEQ ID NO 910] | 2.31 | –
Ac-WVTHRLAGLLSRSGGVVRKNFVPTDVGSKAF-NH2 [SEQ ID NO 915] | 1.15 | –
Ac-WVEHRLKGLLS[Cit]SGGVV[hArg]KNFVPTDVGPFAF-NH2 (lactam 3-7) [SEQ ID NO 906] | 1.15 | –
Ac-WVEH[Cit]LKGLLS[Cit]SGGVV[hArg]KNFVPTDVGPFAF-NH2 (lactam 3-7; also: PEG-conjugated, in most cases at Lys25) [PEG-peptide of SEQ ID NO 907] | – | 4.87
Ac-WVEH[hArg]LKGLLS[Cit]SG[Aze]VV[hArg]KNFVPTDVGPFAF-NH2 (lactam 3-7; SMILES CC(=O)N[C@@H](Cc1c[nH]c2ccccc12)C(=O)N[C@H](C(=O)N[C@H]1CCC(=O)NCCCC[C@@H](C(=O)NCC(=O)N[C@@H](CC(C)C)C(=O)N[C@@H](CC(C)C)C(=O)N[C@@H](CO)C(=O)N[C@@H](CCCNC(N)=O)C(=O)N[C@@H](CO)C(=O)NCC(=O)N2CC[C@H]2C(=O)N[C@H](C(=O)N[C@H](C(=O)N[C@@H](CCCCNC(=N)N)C(=O)N[C@@H](CCCCN)C(=O)N[C@@H](CC(N)=O)C(=O)N[C@@H](Cc2ccccc2)C(=O)N[C@H](C(=O)N2CCC[C@H]2C(=O)N[C@H](C(=O)N[C@@H](CC(=O)O)C(=O)N[C@H](C(=O)NCC(=O)N2CCC[C@H]2C(=O)N[C@@H](Cc2ccccc2)C(=O)N[C@@H](C)C(=O)N[C@@H](Cc2ccccc2)C(N)=O)C(C)C)[C@@H](C)O)C(C)C)C(C)C)C(C)C)NC(=O)[C@H](CC(C)C)NC(=O)[C@H](CCCCNC(=N)N)NC(=O)[C@H](Cc2c[nH]cn2)NC1=O)C(C)C) [SEQ ID NO 909] | 3.45 | –
Ac-WVEHRLKGLLSQSGGVV[hArg]KNFVPTDVGPFAF-NH2 (lactam 3-7; also: PEG-conjugated, in most cases at Lys25) [PEG-peptide of SEQ ID NO 904] | – | 6.73
WVTHRLAGLLSRSGGVVRKNXVPTDVGPFAF (Ac-WVTHRLAGLLSRSGGVVRKN[2-Nal]VPTDVGPFAF-NH2) [SEQ ID NO 912] | 1.16 | –
WVTHRLAGLLSRSGGVVRKNFVPTDVGPFAX (Ac-WVTHRLAGLLSRSGGVVRKNFVPTDVGPFA[2-Nal]-NH2) [SEQ ID NO 913] | 1.72 | –
WVTHRLAGLLSRSGGVVRKNFVPTDVGPFAX (Ac-WVTHRLAGLLSRSGGVVRKNFVPTDVGPFA[1-Nal]-NH2) [SEQ ID NO 914] | 33.1 | –
Ac-WVEH[hArg]LKGLLS[Cit]SGGVV[hArg]KNFVPTDVGPFAF-NH2 (lactam 3-7; SMILES CC(=O)N[C@@H](Cc1c[nH]c2ccccc12)C(=O)N[C@H](C(=O)N[C@H]1CCC(=O)NCCCC[C@@H](C(=O)NCC(=O)N[C@@H](CC(C)C)C(=O)N[C@@H](CC(C)C)C(=O)N[C@@H](CO)C(=O)N[C@@H](CCCNC(N)=O)C(=O)N[C@@H](CO)C(=O)NCC(=O)NCC(=O)N[C@H](C(=O)N[C@H](C(=O)N[C@@H](CCCCNC(=N)N)C(=O)N[C@@H](CCCCN)C(=O)N[C@@H](CC(N)=O)C(=O)N[C@@H](Cc2ccccc2)C(=O)N[C@H](C(=O)N2CCC[C@H]2C(=O)N[C@H](C(=O)N[C@@H](CC(=O)O)C(=O)N[C@H](C(=O)NCC(=O)N2CCC[C@H]2C(=O)N[C@@H](Cc2ccccc2)C(=O)N[C@@H](C)C(=O)N[C@@H](Cc2ccccc2)C(N)=O)C(C)C)[C@@H](C)O)C(C)C)C(C)C)C(C)C)NC(=O)[C@H](CC(C)C)NC(=O)[C@H](CCCCNC(=N)N)NC(=O)[C@H](Cc2c[nH]cn2)NC1=O)C(C)C) [SEQ ID NO 908] | 1.28 | –
